The record followed here is patent US20060210570A1.

The experiment addresses prostasin (recombinant human, soluble, active two-chain form purified from conditioned medium of CHO cells transfected with full-length prostasin) (human) (UniProt Q16651). Description: cell-based or functional assay.

Regarding “sHAI-1B wildtype (soluble hepatocyte growth factor activator inhibitor-1B, entire extracellular domain) (from UniProt O43278 36-465)”, the IC50 (nM), inhibition of prostasin amidolytic activity towards S2765 worked out at 66 nM. As for “sHAI-1 (obtained from R & D Systems, Inc.) (from UniProt O43278 36-449)”, the figure is 109 nM; as for “Alzheimer's amyloid β protein precursor inhibitor (APPI) (from UniProt P05067 287-344)”, greater than 1000 nM.
